Source: the supplement of paper PMC9170038

Tested on: MS2 coat protein
Test: apparent KD of MS2 coat protein; designed switch direction (-1 OFF switch, 1 ON switch): -1; higher = weaker reporter binding
Procedure, shortened: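 Three titration conditions were used: no input, 200 uM small-molecule ligand, and an oligonucleotide input. In each, SNAP-549-labelled MS2 coat protein was raised from 0.7 or 1.5 nM, doubling, to 3 µM over designed RNA switches transcribed on Illumina chips by stalled E. coli RNA polymerase. Curve fits of normalised cluster fluorescence gave values whose per-design median over clusters is the apparent KD.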

[1] = Eterna round: R95, input ligand: FMN 200 uM
[2] = Eterna round: R95, input ligand: microRNA oligo, concentration not stated
[3] = Eterna round: R95, input ligand: none
[4] = input ligand: microRNA oligo, concentration not stated

Sequence | apparent KD of MS2 coat protein [1] [nM] | apparent KD of MS2 coat protein [2] [nM] | apparent KD of MS2 coat protein [3] [nM] | apparent KD of MS2 coat protein (input ligand: FMN 200 uM) [nM] | apparent KD of MS2 coat protein (input ligand: none) [nM] | apparent KD of MS2 coat protein [4] [nM]
GGCCCUAGGGUCAGAUGCACAAGCUUUUUGCUCGUUUUAACAUGAGGAUCACCCAUGUCUAGUGGAUCUGAUCGGGU [Indiso] (puzzle: Sensor v3, turn-off variant 2) | 18.2 | 48.7 | 17.4 |  |  | 
GGCCGUAAUAAGGAUAUCACUAGCGAUAGCUAGUGAGAAGGUAUUACAUGAGGAUCACCCAUGUGAUCAGGCCA [E6/3-B3] (Eterna round: R97, puzzle: Exclusion 6) |  |  |  | 1180 | 176 | 
GGCGACCUAGGAUAUACAUGAGGAUCACCCAUGUUUAUCUAAUAGAUGAAGACGGGUUGUAGAAGGAGGAAAAU [Geriin] (puzzle: Exclusion 3) |  | 13.1 |  |  |  | 
GGGAAGGGAGGAUAUGAGGGAGAGAACAUGAGGAUCACCCAUGUGAGACCUCAGGAUCGAUCAGAAGGCCCGAUCC [AK-MS2ROC-r4-exclusion5-14] (Eterna round: R97, puzzle: Exclusion 5) |  |  |  | 677 | 383 | 
GGGACCCUUGUAGGAUAUAGAACCGCAGGAGGUCUAGAAGGGCACUGGUCGCCGUGGACAUGAGGAUCACCCAUGUGUUUGCCC [Eternabot solution 36] (Eterna round: R96, puzzle: Exclusion NG 1) |  |  |  | 55.2 | 52.4 | 40.2
GGGAGGGAUGCAGGAUAUGCGAGGGAGGGAGGAGUAGAAGGGCAUGAGGAUCACCCAUGUGACAUGAGGAUCACCCAUGUGGGA [Success - 29% A] (Eterna round: R96, puzzle: Exclusion NG 1) |  |  |  | 78 | 82 | 80.2
GGGCCACAUGAGGAUCACCCAUGUGAGGAUAUCAUGCUUCGUAGUAAACUACGAAGUGUGAGAAGGCACAAUGG [Omei Ex1 C9] (Eterna round: R97, puzzle: Exclusion 1) |  |  |  | 444 | 143 | 
GGGCCACAUGAGGAUCACCCAUGUUAGGAUAUUUGUUCGGUGCUAUGAAUUCAAGGCUAGAGAAGGAACAGGGA [Eternabot (L1) Solution 46] (Eterna round: R97, puzzle: Exclusion 1) |  |  |  | 22.4 | 23 | 
GGGCGGCGGACCGUGGCUUUUUGCUCGUCUUAUGCUUCGACAUGAGGAUCACCCAUGUGGUGGUGGUCCGUUGUGGG [Grok-var2-13 mod JAL] (puzzle: Sensor v3, turn-off variant 2) | 18.4 | 15.5 | 20.8 |  |  | 
GGGCGUUAAGGAUAUGAUUGAAGGAACAUGAGGAUCACCCAUGUUCGGUGCCUAAUGUUCUCAGAAGGUGAUAGCU [Eternabot (L1) Solution 50] (Eterna round: R97, puzzle: Exclusion 5) |  |  |  | 186 | 175 | 
GGGCUAGAAGGAGGAUAUUGAAGAUCCUCACGACAUGAGGAUCACCCAUGUGGUUUAGCAAGGGCCAAGAAGGCCUAUAGCCCA [Zasoan] (Eterna round: R96, puzzle: Exclusion NG 2) |  |  |  | 111 | 77.3 | 52.1
GGGCUCGGUCUUCCGGCUGGGUCCACAUGAGGAUCACCCAUGUAGGAUAUCCCGGCUGCCGGCCGGGAGAAGGGCGUGUGUUUC [-39.8, -36.9 kcal, 14% A] (Eterna round: R96, puzzle: Exclusion NG 3) |  |  |  | 22.6 | 21.5 | 13.3
GGGUGACAGUUAGGAUAUCUUAGCACGCCGUAGAGAGAAGGGACAUGAGGAUCACCCAUGUUGUAGUGCCUCCAGCACUGCUAG [Esrasoce] (Eterna round: R96, puzzle: Exclusion NG 1) |  |  |  | 105 | 66.4 | 34
GGUAAGUGUGACUUGGGUGACAUGAGGAUCACCCAUGUCACAAGCUUGUUGCUCGCCUUGUAAUUAACCCAUGUCAC [LRO Sensor-off var1-28 mod of Stov1-13-A1 by Brourd] (Eterna round: R97, puzzle: Sensor, turn-off variant 1) |  |  |  | 17.3 | 18.6 | 
GGUACUAACAGCUGACUGUUAGUACUGUAGGUUUGUGUUACAUGAGGAUCACCCAUGUCCUCAUAAGCUCGUCUUGU [JL-sv3-2.23 mat747 mod] (puzzle: Sensor v3, turn-off variant 2) | 382 | 252 | 445 |  |  | 
GGUACUAACAGCUGACUGUUAGUACUGUAGGUUUGUGUUACAUGAGGAUCACCCAUGUCCUCAUAGGCUCGUCUUGU [JL-sv3-2.24 mat747 mod] (puzzle: Sensor v3, turn-off variant 2) | 281 | 91.5 | 739 |  |  | 
GGUACUAUCACCUGAGUGGUAGUGCUAUAAGCUUGUGAUACAUGAGGAUCACCCAUGUCCUCAUUUGCUCGUCUUAU [JL-sv3-2.29 JL mod] (puzzle: Sensor v3, turn-off variant 2) | 602 | 610 | 824 |  |  | 
GGUACUCAAAGAGUACCAAUACGAACAUGAGGAUCACCCAUGUAGGAUAUGCUACUCAAAGAGUAGCAGAAGGACGUGAACCCU [Far Half Aptamer] (Eterna round: R96, puzzle: Exclusion NG 3) |  |  |  | 164 | 40.5 | 26.5
GGUACUCAAAGAGUACCAAUACGAACAUGAGGAUCACCCAUGUAGGAUAUGCUACUCAAAGAGUAGCAGAAGGAUAUGAUCCAU [Far Half Aptamer v13] (Eterna round: R96, puzzle: Exclusion NG 3) |  |  |  |  |  | 60.5
GGUACUCAAAGAGUACCAAUACGAACAUGAGGAUCACCCAUGUAGGAUAUGCUACUCAAAGAGUAGCAGAAGGAUAUGAUCGAU [Far Half Aptamer v14] (Eterna round: R96, puzzle: Exclusion NG 3) |  |  |  | 45.6 | 40.6 | 27.9
GGUAGAGUGGUAGGAUAUCCGUCUGUUUCAGUCGGAGAAGGGCCACAGUCACUGGGUCCUAAUAUCAUGGAGACCUGAUCUACU [pwkr exNG1 F6.13] (Eterna round: R96, puzzle: Exclusion NG 1) |  |  |  | 785 | 385 | 337
GGUCAAGAACAGAUCCGCGCUGCCAUUGACCGCUCAUUUACAUGAGGAUCACCCAUGUUUUUUGCUCAUCUUGUUAC [Usdila] (puzzle: Sensor v3, turn-off variant 2) | 20.2 | 62.2 | 19.8 |  |  | 
GGUCAGAUGGUAGGAUAUCCAUAUCGAGUGACCCUUUCAUAACAUGAGGAUCACCCAUGUUGGUGGGAGAAGGGCCGUACGGCG [salish99_ExNG02_R04_019] (Eterna round: R96, puzzle: Exclusion NG 2) |  |  |  | 17.2 | 22 | 14.4
GGUCCACGAGGAUAUCGAUUAUAGUACAUGAGGAUCACCCAUGUUGUCCAGGUUUCGUUUCGAGAAGGCGUGGGUU [LRO-Ex5-01] (puzzle: Exclusion 5) |  | 88.1 |  |  |  | 
GGUCGCAGGACAGGAUAUCCAAGCGAUCUAACAUGAGGAUCACCCAUGUGCUAAGGCAGAGGGACGGAGAAGGGUCGAUCGGCC [Inqusodire] (Eterna round: R96, puzzle: Exclusion NG 2) |  |  |  | 166 | 58.3 | 42.4
GGUCGGCGAGGAUAUACAUGAGGAUCACCCAUGUGAUAGAUUGCACGCGUACGUGUAUGUAGAAGGCGCUGACG [JL-ex3-3.30 salish99 mod] (Eterna round: R96, puzzle: Exclusion 3) |  |  |  | 433 | 32.8 | 24.7
GGUCGGCGAGGAUAUACAUGAGGAUCACCCAUGUGAUAGAUUGCACGCGUACGUGUAUGUAGAAGGCGCUGACG [JL-ex3-3.30 salish99 mod] (puzzle: Exclusion 3) | 811 | 29.6 | 32.8 |  |  | 
GGUCUGCGAGGAUAUACAUGAGGAUCACCCAUGUGAGUGAAACUAGUGAGGUCGAUUGGUAGAAGGCGCGGACG [Mat - Exclusion 3 - Mod of JL D82] (puzzle: Exclusion 3) | 17.7 | 63 | 17.5 |  |  | 
GGUCUGCGAGGAUAUACAUGAGGAUCACCCAUGUGCGAGAAACUAGUGAGGUCGGUUGGUAGAAGGCGCGGACG [Mat - Exclusion 3 - Mod of JL D89] (puzzle: Exclusion 3) | 13.9 | 14 | 32.8 |  |  | 
